Experimental data published in doi:10.1101/2021.03.09.434688.
Values joined by “and” are separate entries in the source; they are usually repeats but may differ in a detail not shown here. Equal values may be shown once.

Key:
PsnB = assay: crystal structure
[1] = molecular target: MP variants with one or two Glu-to-Ala mutations; assay: fluorescence polarisation
[2] = molecular target: fluorophore-labeled core peptide Fl_PsnA2(28-38); assay: fluorescence polarisation
[3] = molecular target: fluorophore-labeled minimal precursor peptide Fl_PsnA2(14-38); assay: fluorescence polarisation

stoichiometry N (PsnB)	fold reduction of the affinity against MP [1]	Kd [2]	fold enhancement of the interaction with ADP (1 mM) against no nucleotide [3]	fold enhancement of the interaction with AMPPNP (1 mM) against no nucleotide [3]	fold tighter binding than the LP (Fl LP) [3]	Substance
2	10 fold and 4 fold	> 100 µM	9 fold	2 fold	6 fold	PsnB (enzyme)
		11 µM				leader-fused PsnB (enzyme)
